Source: US20210009984A1

Biological target: mannose-6-phosphate receptors (M6PR) (human)
Assay: cell-based or functional assay

Row | Km value, Michaelis-Menten constant that represents a half of the maximum absorption rate (intracellular absorption in CCD986SK cells, read by enzyme activity after 24 hours) [nM] | Substance
1 | 10.9 | agalsidase-beta (from UniProt P06280 32-429) (enzyme)
2 | 11.6 | alpha-galactosidase-Fc fusion protein
